Patent publication US20260078416A1, “ORTHOGONAL METABOLIC FRAMEWORK FOR ONE-CARBON UTILIZATION” (Mojia Biotech Pte. Ltd., priority 2021, published 2026)

Columns and labels:
[1] = system: 2,4-dihydroxybutyric acid production from 3-hydroxypropionaldehyde and formate; assay: HACS screening with 3-hydroxypropionaldehyde and formate (DHB productivity); type: cell-based, E. coli; conditions: 5 mM 3HP and 20 mM formate, first round
Excerpt: We used 2-hydroxyacid productivity per cell density (μM/OD600) as indicator of HACS activity. 2-Hydroxyacids can be produced co-feeding various aldehydes and formic acid (formate) as carbon source in the presence of active HACS variant and acyl-CoA transferase from Clostridium aminobutyricum (CaAbfT). CaAbfT is shown to be capable of catalyzing reaction from formate to formyl-CoA (Nattermann, M., et al. ACS Catal 11 (9): 5396-5404 (2021)). HACS condenses aldehyde and formyl-CoA to form 2-hydroxyacyl-CoA, which can then be hydrolyzed to 2-hydroxyacid via native thioesterase activities (FIG. 31A).
For the in vivo prototyping, we engineered vectors to independently control expression of HACS variants and CaAbfT, with HACS under control of the IPTG-inducible T7 promoter in pCDFDuet-1 and CaAbfT under control of a cumate-inducible T5 promoter in pETDuet-1 (FIG. 31B) and transformed them into the engineered strain of E. coli described in EXAMPLE 3.
The HACS variants were screened for 2-hydroxyacid production using the high throughput screening platform as described in EXAMPLE 3 by co-feeding 5 mM aldehyde and 20 mM formate. The cells were harvested after 1 hour by centrifugation and the supernatant analyzed by HPLC (as described in EXAMPLE 2) or SoGO method.
We used 2,4-dihydroxybutyric acid (DHB) productivity per cell density (uM DHB/OD600) as indicator of HACS activity. […]

[2] = system: glycolate production from formaldehyde; assay: High throughput resting-cell screening of first round HACS variants co-expressed with LmACR; type: cell-based, E. coli; conditions: 5 mM formaldehyde, 3 hours
Excerpt: We used glycolic acid (glycolate) productivity per cell density (uM glycolate/OD600) as indicator of HACS activity. Glycolate can be produced from formaldehyde as sole carbon source in the presence of active HACS variant and acyl-CoA reductase from Listeria monocytogenes (LmACR) (FIG. 20A). LmACR is shown to be capable of catalyzing oxidation reaction from formaldehyde to formyl-CoA (Chou, A., et al. Nat. Chem. Biol. 15:900-906 (2019)). HACS condenses formaldehyde and formyl-CoA to form glycolyl-CoA, which can then be hydrolyzed to glycolate via native thioesterase activities (FIG. 20A).
To prototype glycolate production pathway from formaldehyde in vivo, we constructed vectors overexpress various HACS candidates and LmACR, with both under control of the IPTG-inducible T7 promoter in pCDFDuet-1 and pETDuet-1, respectively (FIG. 20C). […]
Cells from the above pre-cultures were then centrifuged (4000 rpm, 22° C.), washed with the above minimal media without any carbon source, and resuspended with 1 mL of above minimal media containing indicated amounts of carbon source. […] After incubation at 30° C. for 3 hours, the cells were pelleted by centrifugation and the supernatant analyzed by HPLC or GC-MS as described below. […] The soluble cell lysates obtained from the supernatant were analyzed using SDS-PAGE. […]

Molecule	DHB productivity [1]	glycolate productivity and relative HACS expression compared with RuHACL [2]
JGI15: HACS variant; GenBank HAK63664.1 (protein) MAKSEGKVNGATLMARALQQQGVQYMFGIVGFPVIPIAIAAQREGITYIGMRNEQSASYAAQAASYLTGRPQACLVVSGPGVVHALAGLANAQVNCWPMLLIGGASAIEQNGMGAFQEERQVLLASPLCKYAHQVERPERIPYYVEQAVRSALFGRPGAAYLDMPDDVILGEVEEAAVRPAATVGEPPRSLAPQENIEAALDALQSAKRPLVIVGKGMAWSRAENEVRQFIERTRLPFLATPMGKGVMPDDHPLSVGGARSHALQEADLVFLLGARFNWILHFGLPPRYSKDVRVIQLDLSAEEIGNNRQAEVALVGDGKAIVGQLNQALSSRQWFYPAETPWREAIAAKIAGNQAAVAPMIADNTSPMNYYRVYRDIAARLPRNAIIVGEGANTMDIGRTQMPNFEPRSRLDAGSYGTMGIGLGFAVAAAAVHPGRPVIAVQGDSAFGFSGMEFETAARYGMPIKVIILNNGGIGMGSPAPRDGQPGMPHALSHDARYERIAEAFGGAGFYVTDSAELGPALDAAMAFKGPAIVNIKIAATADRKPQQFNWHG	decent DHB productivity	better glycolate productivity and relative HACS expression than the starting reference
JGI20: HACS variant; GenBank PWB41796.1 (protein) MGQITGAQIVARALKQQGVEYMFGIVGIPVIPIAMFAQREGIKFYGFRNEQSASYAAAAVGYLTGRPGVCLGVSGPGMIHGVAGMANAWSNCWPMILIGGANDSYQNGQGAFQEAPQIEAARPFAKYCARPDSLARLPFYVEQAVRTSIYGRPGAVYLDLPGDIITGAMEEEDVHFPPRCPDAPRMMAPQESIDAAMAALKSAERPLVIVGKGAAYSRAENEVREFLETTQLPYLASPMGKGVMPDDHPLSIAPARSAALLGADVILLMGARLNWMMHFGHPPRFDPKVRVIQMDISAEEIGTNVPTEVALVGDAKAITTQLNASLKQQPWQYPSETTWWTGLRKKIDENGATVAEMMADESVPMSYYRVYREIRDLIPNDAIIQNEGASTMDIGRTLMPNFLPRHRLDAGSFGTMGVGLGQAIAAAAVHPDKHVFCIEGDSAFGFSGMEVETAARYGMKNITFIIINNNGIGGGPDTLDPTRVPPSAYTPNAHYEKMAEIYGGKGYFVTEPSQLRPALEEAIKADKPAIVNIMISATSQRKPQQFAWLTR	decent DHB productivity	better glycolate productivity and relative HACS expression than the starting reference
